Data from patent US11911450B2, “Method for managing pain” (UNIVERSITY OF MIAMI, priority 2017, dated 2024).
Entries after “also recorded” stand apart in the source; their conditions may differ.

Tests used:
[1] = tested on: RYR-dependent calcium release; assay: 5HT-induced RYR-dependent cytoplasmic calcium release in NBL cells (Fura2 imaging); format: cell-based, human; settings: 50 μM 5HT, vs empty vector
Protocol: (§1) Pharmacodynamics—Bioassay of Calcium Release: Fifteen mm glass coverslips (cat #72228 Electron Microscopy Sciences, Hatfield, PA) were coated with poly-D-Lysine (Sigma) followed by Laminin and 1×10^5 cells were seeded on each coverslip. Twenty-four hrs later, cells were transfected with AAV2-ITR, AAV2-V5-Car10, or AAV2-V5-CA10 vectors as previously described. In embodiments wherein AAV2 is not employed, other expression vectors (including viral vectors) are used. Fura-2AM (cat #F1221 ThermoFisher scientific, Waltham, MA) was dissolved in DMSO (50 μg in 50 μl) and 1% pluronic acid-127 (cat #P2443 Sigma, St Louis, MO) as the stock solution. Forty eight hrs after seeding, cells were loaded with 2 μM Fura-2AM dye for 45 min at room temperature in the dark in a standard Ca+2 buffer solution containing: 125 mM NaCl, 2 mM MgCl, 4.5 mM KCl, 10 glucose, 20 mM HEPES, 2 mM CaCl2, pH 7.4.25. Following dye loading, coverslips were washed with Ca^+2 buffer solution. […] Regions of interest over the field of view were selected and the mean pixels intensity at each frame was measured. Data was plotted as ratio fluorescence intensity versus time and subsequently converted to a relative scale.
It was also determined that 5HT-induced RYR-dependent calcium release in NBL cells is inhibited by ryanodine. […]

[2] = morphine dose vs paw withdrawal latency; format: in vivo, mouse; settings: allometric conversion to 60 kg human
Protocol: Behavioral tests: Thermal and mechanical sensitivity was measured by Hargreaves test and von Frey filament threshold calculations respectively. See, e.g., Boyce-Rustay et al. Methods Mol Biol. 2010; 617:41-55; Hargreaves et al., Pain. 1988; 32(1):77-88; and Chaplan et al., J Neurosci Methods. 1994; 53(1):55-63. Tests were performed in a quiet room with daylight-like illumination. Animals were habituated to the behavioral room and apparatus for at least 60 minutes for 1 week before a blinded investigator collected data. The thermal sensitivity test was performed using an IITC Plantar Analgesia Meter apparatus (IITC Life sciences, Woodland Hills, CA) with a plastic box placed on a glass plate of constant temperature (30° C.). The mouse plantar surface was exposed to a beam of radiant heat to induced paw withdrawal. Baseline latencies were adjusted to 5-9 sec with a maximum of 20 sec as cutoff to prevent potential injury. The latency time in seconds from the onset of the intense light beam to paw withdrawal was defined as the withdrawal latency of the paw. […] The mouse hind paw was pressed with one of a series of von Frey filaments with logarithmically incrementing stiffness (Stoelting Co, Wood Dale, IL) presented perpendicular to the plantar surface of each hind paw for 1-2 seconds, the 50% threshold was determined using the Up- and Down method.

[3] = target: T1, RYR1 (Homo sapiens, UniProt P21817); assay: immunoprecipitation (anti-RYR1) and western blot (anti-V5) in NBL cells; format: binding; settings: 48 h after transfection
T1 construct: NBL cells were transfected with AAV-V5-CA10 and AAV-V5-Car10 using Lipofectamin (LTX); endogenous in cells; host or cells: NBL cells transfected with V5-CA10 / V5-Car10 only
Protocol: NBL cells were transfected with AAV-V5-CA10 and AAV-V5-Car10 using Lipofectamin (LTX). Cellular protein was extracted 48 h after transfection.
Immunoprecipitation (IP) and western blotting (WB) was utilized to detect binding. Rabbit anti-RYR1 was used for IP and chicken anti-V5 was used for WB analyses. About 1/10 of the IP protein was used for WB to show the V5 labeled CA10 or Car10 by WB. B-actin was used as a loading control. See FIG. 33, which establishes co-immunoprecipitation of CA10 and RYR.

[4] = tested on: intracellular calcium release in NBL cells; assay: ATP-stimulated calcium release in NBL cells (Fura2 imaging); format: cell-based, human; settings: 1 μM ATP, vs empty vector
Protocol: as §1, with “scale. […]” for “scale.”

T1 sequence (P21817 whole entry): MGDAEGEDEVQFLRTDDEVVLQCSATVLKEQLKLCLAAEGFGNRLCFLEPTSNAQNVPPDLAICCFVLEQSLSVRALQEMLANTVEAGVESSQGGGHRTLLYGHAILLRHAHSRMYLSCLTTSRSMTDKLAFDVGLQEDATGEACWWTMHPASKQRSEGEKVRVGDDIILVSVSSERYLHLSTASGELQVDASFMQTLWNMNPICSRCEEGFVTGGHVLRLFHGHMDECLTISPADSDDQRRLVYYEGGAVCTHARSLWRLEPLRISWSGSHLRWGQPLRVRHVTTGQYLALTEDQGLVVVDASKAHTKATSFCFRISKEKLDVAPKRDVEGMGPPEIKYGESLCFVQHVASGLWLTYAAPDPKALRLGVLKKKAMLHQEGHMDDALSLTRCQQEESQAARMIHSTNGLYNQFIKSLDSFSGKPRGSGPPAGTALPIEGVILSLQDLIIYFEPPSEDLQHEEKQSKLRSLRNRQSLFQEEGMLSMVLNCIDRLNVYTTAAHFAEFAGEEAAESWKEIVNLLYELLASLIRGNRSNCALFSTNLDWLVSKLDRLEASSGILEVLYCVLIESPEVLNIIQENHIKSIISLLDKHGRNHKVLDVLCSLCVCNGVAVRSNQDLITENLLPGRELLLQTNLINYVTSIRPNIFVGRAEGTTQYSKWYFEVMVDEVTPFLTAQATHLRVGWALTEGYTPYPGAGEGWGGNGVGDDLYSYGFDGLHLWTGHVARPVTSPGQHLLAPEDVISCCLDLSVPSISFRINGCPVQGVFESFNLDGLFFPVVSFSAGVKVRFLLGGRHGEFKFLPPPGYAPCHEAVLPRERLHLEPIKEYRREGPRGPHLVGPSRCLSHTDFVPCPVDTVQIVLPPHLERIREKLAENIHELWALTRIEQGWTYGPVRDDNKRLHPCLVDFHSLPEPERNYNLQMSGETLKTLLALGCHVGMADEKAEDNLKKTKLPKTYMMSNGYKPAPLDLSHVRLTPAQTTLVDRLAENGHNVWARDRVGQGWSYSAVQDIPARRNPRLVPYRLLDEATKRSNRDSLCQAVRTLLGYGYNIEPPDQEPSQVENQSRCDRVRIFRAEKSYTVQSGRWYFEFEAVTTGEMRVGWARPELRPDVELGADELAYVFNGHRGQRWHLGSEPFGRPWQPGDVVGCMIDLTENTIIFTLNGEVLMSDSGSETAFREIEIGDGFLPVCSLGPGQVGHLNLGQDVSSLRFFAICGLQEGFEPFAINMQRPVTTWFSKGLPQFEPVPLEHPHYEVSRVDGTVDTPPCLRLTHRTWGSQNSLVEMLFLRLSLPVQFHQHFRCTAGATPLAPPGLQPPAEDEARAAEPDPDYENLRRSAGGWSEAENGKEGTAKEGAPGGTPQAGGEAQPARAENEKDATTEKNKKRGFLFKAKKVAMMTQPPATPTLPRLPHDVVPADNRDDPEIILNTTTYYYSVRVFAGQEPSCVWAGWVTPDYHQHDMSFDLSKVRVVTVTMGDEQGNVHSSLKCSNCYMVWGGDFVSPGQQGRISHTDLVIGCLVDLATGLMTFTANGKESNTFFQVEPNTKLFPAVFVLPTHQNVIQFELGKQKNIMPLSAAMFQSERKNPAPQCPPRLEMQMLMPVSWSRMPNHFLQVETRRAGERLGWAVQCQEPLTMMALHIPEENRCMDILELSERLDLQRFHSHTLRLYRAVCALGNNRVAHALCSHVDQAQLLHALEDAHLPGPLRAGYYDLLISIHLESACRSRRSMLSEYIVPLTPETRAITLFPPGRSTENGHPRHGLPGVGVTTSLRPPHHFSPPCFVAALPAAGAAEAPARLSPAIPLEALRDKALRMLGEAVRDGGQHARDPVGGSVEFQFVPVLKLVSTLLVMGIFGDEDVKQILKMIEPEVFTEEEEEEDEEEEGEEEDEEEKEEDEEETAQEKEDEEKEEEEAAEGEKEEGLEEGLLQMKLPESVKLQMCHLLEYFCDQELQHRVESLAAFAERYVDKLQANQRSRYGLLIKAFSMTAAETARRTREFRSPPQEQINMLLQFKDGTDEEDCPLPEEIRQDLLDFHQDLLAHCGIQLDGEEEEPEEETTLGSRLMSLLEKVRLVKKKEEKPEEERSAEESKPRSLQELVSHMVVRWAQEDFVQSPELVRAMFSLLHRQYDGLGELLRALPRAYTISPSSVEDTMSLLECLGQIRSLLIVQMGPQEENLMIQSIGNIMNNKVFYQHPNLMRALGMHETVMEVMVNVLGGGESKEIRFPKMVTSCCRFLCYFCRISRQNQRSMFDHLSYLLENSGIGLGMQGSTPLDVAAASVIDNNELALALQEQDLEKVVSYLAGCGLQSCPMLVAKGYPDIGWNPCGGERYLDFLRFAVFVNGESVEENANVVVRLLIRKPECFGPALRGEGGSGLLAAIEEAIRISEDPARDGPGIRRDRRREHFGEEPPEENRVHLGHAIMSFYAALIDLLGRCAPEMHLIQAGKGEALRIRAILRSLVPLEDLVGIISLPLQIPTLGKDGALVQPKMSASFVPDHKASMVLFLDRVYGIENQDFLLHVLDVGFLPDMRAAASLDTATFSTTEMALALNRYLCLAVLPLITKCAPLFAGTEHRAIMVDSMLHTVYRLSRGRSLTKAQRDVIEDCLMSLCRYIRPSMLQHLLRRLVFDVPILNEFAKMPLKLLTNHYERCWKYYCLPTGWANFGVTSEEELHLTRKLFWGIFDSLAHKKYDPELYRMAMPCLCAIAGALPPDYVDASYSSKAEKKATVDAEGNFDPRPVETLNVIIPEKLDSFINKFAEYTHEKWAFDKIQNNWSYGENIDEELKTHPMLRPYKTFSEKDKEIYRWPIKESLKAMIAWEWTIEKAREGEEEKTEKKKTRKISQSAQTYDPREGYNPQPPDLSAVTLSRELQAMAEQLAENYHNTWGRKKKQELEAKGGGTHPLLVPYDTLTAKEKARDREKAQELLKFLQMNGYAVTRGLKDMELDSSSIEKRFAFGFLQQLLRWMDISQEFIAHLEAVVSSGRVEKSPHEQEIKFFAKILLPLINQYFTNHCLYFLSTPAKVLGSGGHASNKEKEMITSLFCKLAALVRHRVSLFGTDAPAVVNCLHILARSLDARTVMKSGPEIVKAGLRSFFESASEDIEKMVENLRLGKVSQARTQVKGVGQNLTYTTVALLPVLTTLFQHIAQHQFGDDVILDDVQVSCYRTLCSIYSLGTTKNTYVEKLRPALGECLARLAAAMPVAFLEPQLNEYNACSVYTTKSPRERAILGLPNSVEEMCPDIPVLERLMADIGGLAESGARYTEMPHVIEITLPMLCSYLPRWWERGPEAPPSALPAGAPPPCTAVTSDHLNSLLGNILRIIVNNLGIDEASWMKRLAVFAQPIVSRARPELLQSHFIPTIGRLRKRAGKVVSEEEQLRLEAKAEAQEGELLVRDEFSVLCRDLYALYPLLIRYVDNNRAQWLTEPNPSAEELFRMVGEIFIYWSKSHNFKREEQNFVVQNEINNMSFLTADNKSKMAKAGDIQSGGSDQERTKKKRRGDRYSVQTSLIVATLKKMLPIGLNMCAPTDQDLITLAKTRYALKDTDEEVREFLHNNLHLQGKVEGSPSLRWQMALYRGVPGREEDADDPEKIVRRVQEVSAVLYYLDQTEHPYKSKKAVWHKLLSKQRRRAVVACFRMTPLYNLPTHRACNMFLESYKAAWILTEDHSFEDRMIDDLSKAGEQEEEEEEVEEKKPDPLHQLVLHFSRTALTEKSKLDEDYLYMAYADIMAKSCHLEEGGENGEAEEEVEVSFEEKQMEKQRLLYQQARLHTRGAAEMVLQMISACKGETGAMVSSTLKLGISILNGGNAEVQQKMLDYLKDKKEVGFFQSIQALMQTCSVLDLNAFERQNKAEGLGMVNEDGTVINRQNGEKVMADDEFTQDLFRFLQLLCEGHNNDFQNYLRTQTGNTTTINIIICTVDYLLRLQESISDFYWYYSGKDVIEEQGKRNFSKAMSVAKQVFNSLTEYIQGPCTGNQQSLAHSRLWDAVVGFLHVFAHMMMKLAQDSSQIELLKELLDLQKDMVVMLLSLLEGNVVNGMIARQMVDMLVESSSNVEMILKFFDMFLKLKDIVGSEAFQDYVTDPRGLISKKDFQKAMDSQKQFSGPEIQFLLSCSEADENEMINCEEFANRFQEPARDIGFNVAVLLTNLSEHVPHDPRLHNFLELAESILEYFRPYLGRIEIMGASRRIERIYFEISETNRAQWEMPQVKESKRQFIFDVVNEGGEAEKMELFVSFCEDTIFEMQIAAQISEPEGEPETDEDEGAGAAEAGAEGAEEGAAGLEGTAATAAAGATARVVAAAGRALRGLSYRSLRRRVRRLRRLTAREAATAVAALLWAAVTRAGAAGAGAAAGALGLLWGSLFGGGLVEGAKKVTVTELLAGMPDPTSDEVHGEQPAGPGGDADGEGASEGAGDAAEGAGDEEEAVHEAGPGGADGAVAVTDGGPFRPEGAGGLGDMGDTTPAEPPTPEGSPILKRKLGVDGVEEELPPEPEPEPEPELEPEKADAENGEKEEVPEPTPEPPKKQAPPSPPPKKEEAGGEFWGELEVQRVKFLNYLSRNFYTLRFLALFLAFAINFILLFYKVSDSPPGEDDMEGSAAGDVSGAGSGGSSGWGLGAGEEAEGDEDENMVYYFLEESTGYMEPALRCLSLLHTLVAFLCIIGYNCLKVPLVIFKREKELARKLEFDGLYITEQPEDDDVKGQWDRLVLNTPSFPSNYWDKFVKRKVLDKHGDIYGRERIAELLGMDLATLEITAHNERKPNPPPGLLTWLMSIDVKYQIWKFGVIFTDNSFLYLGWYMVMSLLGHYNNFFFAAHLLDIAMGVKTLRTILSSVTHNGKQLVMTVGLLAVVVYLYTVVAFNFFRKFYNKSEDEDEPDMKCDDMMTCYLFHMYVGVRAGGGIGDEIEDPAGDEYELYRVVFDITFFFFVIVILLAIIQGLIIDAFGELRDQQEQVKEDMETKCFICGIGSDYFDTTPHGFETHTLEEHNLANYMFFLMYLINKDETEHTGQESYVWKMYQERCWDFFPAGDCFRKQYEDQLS

| Molecule | 5HT-induced cytoplasmic calcium release, effect of overexpression ([1]; listed as V5-Car10) | paw withdrawal latency elevation compared to morphine human oral equivalent dose [2] | binding to RYR1 (co-immunoprecipitation) [3] | 5HT-induced cytoplasmic calcium release, effect of overexpression ([1]; listed as V5-CA10) | ATP-stimulated calcium release [4] |
| --- | --- | --- | --- | --- | --- |
| Car10: carbonic anhydrase 10, rodent ortholog, overexpressed (V5-tagged) protein (protein, left off: small tags and cut ends, carbonic anhydrase 10, rodent ortholog, overexpressed (V5-tagged) protein) MEIVWEVLFLLQANFIVCISAQQNSPKIHEGWWAYKEVVQGSFVPVPSFWGLVNSAWNLCSVGKRQSPVNIETSHMIFDPFLTPLRINTGGRKVSGTMYNTGRHVSLRLDKEHLVNISGGPMTYSHRLEEIRLHFGSEDSQGSEHLLNGQAFSGEVQLIHYNHELYTNVTEAAKSPNGLVVVSIFIKVSDSSNPFLNRMLNRDTITRITYKNDAYLLQGLNIEELYPETSSFITYDGSMTIPPCYETASWIIMNKPVYITRMQMHSLRLLSQNQPSQIFLSMSDNFRPVQPLNNRCIRTNINFSLQGKDCPNNRAQKLQYRVNEWLLK | inhibited; also recorded: inhibits 50 μM 5HT-induced cytoplasmic calcium release | produces profound analgesia | binds |  |  |
| CA10: human carbonic anhydrase 10, overexpressed (V5-tagged) protein; SEQ ID NO: 9 (protein, V5 tag) MEIVWEVLFLLQANFIVCISAQQNSPKIHEGWWAYKEVVQGSFVPVPSFWGLVNSAWNLCSVGKRQSPVNIETSHMIFDPFLTPLRINTGGRKVSGTMYNTGRHVSLRLDKEHLVNISGGPMTYSHRLEEIRLHFGSEDSQGSEHLLNGQAFSGEVQLIHYNHELYTNVTEAAKSPNGLVVVSIFIKVSDSSNPFLNRMLNRDTITRITYKNDAYLLQGLNIEELYPETSSFITYDGSMTIPPCYETASWIIMNKPVYITRMQMHSLRLLSQNQPSQIFLSMSDNFRPVQPLNNRCIRTNINFSLQGKDCPNNRAQKLQYRVNEWLLK |  | produces profound analgesia | co-immunoprecipitation; also recorded: binds | inhibited; also recorded: inhibits 50 μM 5HT-induced cytoplasmic calcium release | inhibited |
